Source: publication PMC10187114

Columns and labels:
[1] = molecular target: VPS29 (recombinant) (human) (UniProt Q9UBQ0); assay: ITC; VPS35L peptides at 600 μM titrated into 20 μM VPS29, 100 mM Tris pH 7.4, 300 mM NaCl, 25°C, single site model
[2] = molecular target: VPS35L (human) (UniProt Q7Z3J2); assay: SEC; Retriever co-expressed in insect cells, affinity purification then size-exclusion chromatography (Superdex200, 25 mM HEPES pH 8.0, 300 mM NaCl, 2 mM β-mercaptoethanol, 4°C)

| Kd [1] | stoichiometry N [2] | Substance |
| --- | --- | --- |
| 6.8 µM | – | VPS35L (28-37) peptide (from UniProt Q7Z3J2 28-37) |
| – | 1 | 3xStrepII-VPS26C (from UniProt O14972 1-297) (natural protein) |
